This series is described as follows: soluble on expression in E. coli; label from the status in PepcDB or PDB records.
With “GPGSMDPNTCAPASAVTDEQPLTLLWGTWEMWCDMPQRQQGQSTENTNWLEQVKSIGLFDSAEGFWGIFNCTILPSQLPPNGSYYLFRKHIAPMWEHEANRRGGKWVIPFTGKASRSEGDLQPVDEAWQTLCLSAIGELFPGDEEEICGVTVSRGRQRTLPSGHATSALSEWKLCLWTRSADNRGSQIRIAEYIRKQLHLQPPSKEASRDGKSGEQDTLMEMPRSPDRSPVAKMREASGIPSAMTYVAHRDLMEAKQEFVKGGSSVAQAFRPKYTLAIDVRNEGV”, the “soluble on expression in E. coli” value was “soluble”.
Take “GPGSMDQDLSVCEQEYRKLLDPEEPLFSRTRELYRLKESILRTPAGVHVLAKAVDTTNSVLLQHELVYNLGQSAMVEACPHLERFIRAVGKYDIVTRHEAVEALGAIGDPACIPLLRHFMEPANEPEAAIRESCELALKRIEMLEEKGKEAVGPAANCPFVSIDPAPAFNGTNTGGSAPYTVSELENLLCDTTGAVSLWLRYQAMFTLRNIGTPEAVAALSRALRQDNTSALLRHEVAFVLGQLEHPASQPALLDALRDEHEAPMVRHEAAEALGAIADPKTLPALEEYAKHKEAIVRDSCVVALEMHKYWSQFNNQRIQH”: the “soluble on expression in E. coli” value is given as “soluble”.
Under “GPGSMEEFYGMEVFAGKTAKPNISADRVLHVTQVALPPNASHAITLLVKTEGKSFVLATLDPQQALFHVSVDMLFSGKQKLAFTCEGATGAVHIIGYTQLAEEEEDAIDDEDDDDMMDDEDVA” stands “soluble”; under “GPGSMEGLSPPETDECAKPHNRECNTTPSSGSPPSNIPPQQLLCSVRSGMHSNLTESAWESRESNSGYAHEKQSGVDGDACTRYYQRLHRFYEQYNPKNLSRISEYLAAYKGKEEQLMAILVGKYGPEPVDRGPQTNLSCCSGDDSVMHFSGKRYRIPTVVTPQQGNTDCETPYWGNSPLIGERDILGLLSSLETANVELQKCYIGPSAQHPTSSWNGMTYVTRAEIFTPNEETFLGHKWTFTLGSKKVLVHEGSAYHRATFFCTDECQYRGRHERWRLCVYTSSVDSLYLVRVIWDPVVYLEPLPLDRSALSQHSSSEAMPIAGSSVSYQTSCGKGNTEPEQPLISATMINIMTMLENMDKKISGRFDALEARFSFLESKLLGAVDDKQRTEDR”, “not soluble”.
“GPGSMERIPLVVRRMVAAEQSCGFVHFFASLADASATPLVIEAKAFSSAAAGGAADDAAPTYQLVYDVMRSRNGHILFKKSYAERFTHSLALAAPVHALPAQLRSLVQSRLQAYIESPGVYLDGATERNVKLLSWIPATAASTTQEEAFPIPGIVMLVKSSYPSESMYREGAKLGLLFNAHRTNPNAKVAQMGLRDRANAYLAENDVYEVLLVHDAADAYLVPEGSRSNYLLQKSDGTWWCSAEEDILVGITLKTTYRVVQACGLGSVQHAKLTLKDILESKSLFILGTSPTIMPVQSVLLYRDTETRRLYEEAVRGLGTTAGTVQQVSDDKAELLFPVNVELAAALRAQYFAEAASS”: the “soluble on expression in E. coli” value is “not soluble”.
Take “GPGSMEVKIGKDVALLTAHKTYRDDGEDMVKAVATYVPFMNYVAACESSGLVPSAFLVRNVRHIARRVVGVIMDVECNTPTGKIVQPVEMSDFSPAILLPVVIVETVRYALLLQRRCVAVGCGLTTEAFCGAKDSGDNITWQNHELLTSAGFDLRDVRKLGFGEYSVGNEGLPPYTLHTIKKGMSSEEFEQLQKISAGTADASLFAVRLEDVMSSVNDAKAGLAASVLLLES”: the “soluble on expression in E. coli” value was “soluble”.
Under “GPGSMFGANAPSTGIGAPAAGFGKPPATFGTSALSGANTTATAGRGFGAATGASATPGFGIAFAAPSTSTAAAGGASGFGSSAASGTTGFGGAAGFGSSAASGTTGFGGAAGFGSSAASGTTGFGAGGGFGAKPGSGFGVSATSGFGAPATGTTGFGAGATAPAAIGGWGAQQPNPAMQPQAPQQPQPTVTLQDFARQSALASYLVKLDESYNALHPNCRFRAFVYNSCGAGQVMDAIQKERYTAHLNGGGCSEEAYMQALHQNPDPGRLYPSPIHFSQELLRRTEKQREAVKVLQKKVTELLQDIDTVAAMDAANVRRQREVEQEEVMLQHRWYSLLCKMELLRRHGSSCGEEGLLNSRVEQLRKLLRAPGRFSQLLSELRPFLTEEASRVAMITQQSANKTEARQQQQQCRFVGSAPAAWRNAGSQPLLRTEVDPYIMKDWVQFAKQMQDGIETLNELLKTDLKEMQAIRSRVEAS” stands “not soluble”.
Consider “GPGSMFLNNNMVDDARTVQLLEEIDVQLERWGKKYGLDPSNEKQKRIPTAGGGDIKPSASSQRSHDVPNVKFVNDRTNSKVGIVETAAVAAPQGFDPSALFDRIDMLEKKLKVAEEERMILSERLFAAERIVVEVVNAQKGLQDEWAALSTQSFSISHLDDDRRTIVDSGKTSKRDCAFTSYTTQSRQSTQSGNSSVAGLSAFVSPAKEDTSRSCLQSPVRNAGSSGSVLGGEEEEDVVGATERRLFALDDLAQRLAV”, for which the “soluble on expression in E. coli” value is on record as “not soluble”.
Under “GPGSMHDLVADDSQDGDNEVISSEVPLNKHAGDEEATRTSTFKYKKGILINQGYEFDGSSTTCAEVPASAWGSNITGDEEATTTSYVRVYVLVSSQAALKELALPPVGSKGASGVPHATGYVPLTAATRAILGANMENCGW” stands “not soluble”; under “GPGSMKATIITPGETYRILAPASSLHKYLTDSYWCSAMEEVCEGKLDGVAVRYTGQQLVLLQFRPKQLSPAGYRYPISMSIPVEYLVPISTEESTEDHNICKHDTNYGTKESTFLGSGFAPLCVVCGRYNVPGMVLRHHGYKCPECVGHKSTRKLRMEGARRR”, “not soluble”.
As for “GPGSMKGKAGRSIAAISDVRAAVLRFCDEQLSRRLDTQPVAEVHQKVSACVQTVDPAMTPYIFGSTAVLGVHEQGSDVDFVCLSPTDVQDGKGADAVSEVAKGLQSDFLFRLGEVVKREHYLWGIELVRRTRVPVLRVKGGLGVDGVSFDVTANRRNGVRNSALLRAYFTQCPEARWLSMLVKQWSKKTGLNASVEGGCITSYGWNIMIVYYLLRRRLVTLVPVESCDVADIAPMPPHMPLESLQQGGQGLADMLMDFVSYYLDEFAPETEVMSLTRAAGETTTEMLSWTKQAEDMARIRGEKIHYRWCIEDPYEYDLNVGRNVTPFKLMLLRKHLERARETALLLLATPPPSATARSVK”, the entry is “not soluble”; as for “GPGSMKPLRIKKRESAGTPAEDEALTGLTSSASSVAAGSLAPRHVPSPPAVKGGRLPAHPGHDSGPSPAAATPAPTAKVSAAVKFSSELDNAAVEAYLEYLTHPHMSWESASRHVAHCREVIEEHRNSIYARSLAMLRRSSFASTIGSEGGDLDALETSTTSSVASAPAGFPRTAPNGSNKATGTLRKGRLGDAGSPLLPSDAAEPLAIVAHSSAAVSSSHSADSASCTSTGTGQRAPSNKGRLLRGPALAGPPRPHRTSSSATAPAAVGESVLGVGGAKLLGGSGSVFLVNGRSSAVTSRTASRDSTDRLPPVAPQGGGESLIHCKRTGGARAAVPSPQPKHRLK”, “soluble”; as for “GPGSMLGSPSDPPPRDAAGDAAAPVSAASSPSAALPVAAVYSTGSQALQAELHQLRERLRVSDEWNMRLQLQLQELLQLPQNEVQDMRQRMQDPDIAIPLLQCYDAVIHEKTEEVERLRREAVDLQTQLDAFRKDQLDVSNAVRMAEELAKSVQGKAAAEVQRYLEAVRELQEELVRLRIEVTRALDAENIAKQDALRIAERAASLETALEAAKQATSKAEAAREAAERKWTIQEQQAEEQEMGAVVQKAQLQRITQENADKAQELERLRAKMTHALRQASDNHAAHLRIVEERHRMIVEDLRSVNRTQELEVLKLRAQLARCDMTNPSGAGRGTGASSASTSSLRLQSTAELLEAQTRQAQEMELKRLHGEVSALQLQRDDAVRQCEQRTSRLQRDFDQQLQDAQRQLQSAQRSFSEARSRCEELEETKAAQEASLRKARDELRQAQQGGQQYRLSADSSARKLASAQQQLAEASKRFSTLQEEKQSAVRQAHERVSELEANVAQALQEVQSAKERAYAEVEEVQRRYEQLRLQNSKLQDDLREREAALVKKERERSILVAQIGRLEDGLEAHKRQMMESDRRVQQLEQQLIAMRQQQREGFLSLEQVKLQNAQLTRTRDQLAEMLQARSL”, “not soluble”.

Source of the values: the DeepSol protein solubility set.
